From PMC6546747, “Wwp2 maintains cartilage homeostasis through regulation of Adamts5” (Nature Communications, 2019) come the findings set out here.

The experiment deals with T1, Wwp2 protein purified from transfected HEK293T cells (in vitro pull-down) (mouse, UniProt Q9DBH0 1-870).
T1 construct: Wwp2; plasmids were built from full-length cDNA NM_025830.3; source: HEK293T, transfected, purified (tagged protein magnetic purification kit)
The experiment can be described thus: pull-down; in vitro pull-down using His-tag (Dynabeads His-Tag Isolation and Pulldown); proteins purified from transfected HEK293T cells. As to conditions: both partners purified.

T1 sequence (Q9DBH0 whole entry): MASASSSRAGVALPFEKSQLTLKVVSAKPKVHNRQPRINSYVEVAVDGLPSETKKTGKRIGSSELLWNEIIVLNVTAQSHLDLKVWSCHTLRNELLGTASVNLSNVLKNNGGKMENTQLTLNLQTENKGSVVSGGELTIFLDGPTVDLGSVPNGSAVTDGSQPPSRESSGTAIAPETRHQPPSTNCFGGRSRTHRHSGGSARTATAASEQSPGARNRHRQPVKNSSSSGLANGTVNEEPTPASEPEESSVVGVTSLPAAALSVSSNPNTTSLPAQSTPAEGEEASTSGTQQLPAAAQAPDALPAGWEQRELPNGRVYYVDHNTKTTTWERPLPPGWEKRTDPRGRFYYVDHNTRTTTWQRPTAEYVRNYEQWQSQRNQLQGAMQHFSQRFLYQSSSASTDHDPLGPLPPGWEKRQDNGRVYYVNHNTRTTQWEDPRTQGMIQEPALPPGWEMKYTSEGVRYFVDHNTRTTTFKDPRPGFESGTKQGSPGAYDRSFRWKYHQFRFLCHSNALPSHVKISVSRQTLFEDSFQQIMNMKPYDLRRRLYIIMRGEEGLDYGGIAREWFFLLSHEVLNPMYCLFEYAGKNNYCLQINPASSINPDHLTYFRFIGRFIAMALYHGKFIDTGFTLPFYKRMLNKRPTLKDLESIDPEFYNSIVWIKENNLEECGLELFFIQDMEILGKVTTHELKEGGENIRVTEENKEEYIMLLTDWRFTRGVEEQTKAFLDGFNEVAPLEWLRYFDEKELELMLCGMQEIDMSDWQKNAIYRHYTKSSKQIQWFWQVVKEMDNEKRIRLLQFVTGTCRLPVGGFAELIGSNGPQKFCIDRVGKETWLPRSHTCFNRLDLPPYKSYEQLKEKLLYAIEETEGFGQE

B1: Runx2 protein purified from transfected HEK293T cells (in vitro pull-down) (natural protein, mouse, UniProt Q08775-5 1-528, looked up)
chain: MASNSLFSAVTPCQQSFFWDPSTSRRFSPPSSSLQPGKMSDVSPVVAAQQQQQQQQQQQQQQQQQQQQQQQQQQQQQEAAAAAAAAAAAAAAAAAAVPRLRPPHDNRTMVEIIADHPAELVRTDSPNFLCSVLPSHWRCNKTLPVAFKVVALGEVPDGTVVTVMAGNDENYSAELRNASAVMKNQVARFNDLRFVGRSGRGKSFTLTITVFTNPPQVATYHRAIKVTVDGPREPRRHRQKLDDSKPSLFSDRLSDLGRIPHPSMRVGVPPQNPRPSLNSAPSPFNPQGQSQITDPRQAQSSPPWSYDQSYPSYLSQMTSPSIHSTTPLSSTRGTGLPAITDVPRRISDDDTATSDFCLWPSSLSKKSQAGASELGPFSDPRQFPSISSLTESRFSNPRMHYPATFTYTPPVTSGMSLGMSATTHYHTYLPPPYPGSSQSQSGPFQTSSTPYLYYGTSSASYQFPMVPGGDRSPSRMVPPCTTTSNGSTLLNPNLPNQNDGVDADGSHSSSPTVLNSSGRMDESVWRPY
notes: Runx2; plasmids were built from full-length cDNA NM_001146038.2; source: HEK293T, transfected, purified (tagged protein magnetic purification kit)
Regarding B1, the binding result is “binds”.
